Data on twelve molecules can be found in patent US20260209352A1 (Adimab, published 2026).

As usually defined, the Kd is the constant that tells how readily two partners part at equilibrium.

Positions count from the first letter of the chain named.

The target of assay [1] is T1, Cynomolgus CD3 on Cyno CD3+ Jurkat cells (cynomolgus, UniProt Q95LI5 22-198).
T1 construct: whole, on cells; CD3 on cells; also called cCD3
Briefly: cell binding cCD3, fold over background.

In a further assay the target is Human CD3εδ-Fc (human) (UniProt P04234). Briefly: KD of scFv-Fc or IgG on human CD3εδ-Fc; instrument not given.
Assay [2] deals with T2, Human CD3 on Human CD3+ Jurkat cells (human, UniProt P07766 23-207).
T2 construct: whole, on cells; CD3 complex on cells; also called hCD3
Briefly: cell binding hCD3, fold over background.

Sequence of Human CD3εδ-Fc (human) (chain, as listed by the source mutant, chain 1 of 2): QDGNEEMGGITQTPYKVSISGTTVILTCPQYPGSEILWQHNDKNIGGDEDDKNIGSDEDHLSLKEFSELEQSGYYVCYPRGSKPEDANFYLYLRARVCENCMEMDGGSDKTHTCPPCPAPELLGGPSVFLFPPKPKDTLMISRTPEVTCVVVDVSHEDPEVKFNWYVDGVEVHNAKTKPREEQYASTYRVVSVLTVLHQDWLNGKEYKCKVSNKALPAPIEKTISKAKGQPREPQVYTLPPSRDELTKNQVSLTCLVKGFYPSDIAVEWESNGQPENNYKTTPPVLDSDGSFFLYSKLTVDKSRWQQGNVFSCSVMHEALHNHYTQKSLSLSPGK
Sequence of Human CD3εδ-Fc (human) (P04234 22-105, stated change not applied, chain 2 of 2): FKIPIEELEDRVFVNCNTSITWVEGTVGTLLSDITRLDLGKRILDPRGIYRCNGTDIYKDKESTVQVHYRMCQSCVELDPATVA
T1 sequence (Q95LI5 22-198): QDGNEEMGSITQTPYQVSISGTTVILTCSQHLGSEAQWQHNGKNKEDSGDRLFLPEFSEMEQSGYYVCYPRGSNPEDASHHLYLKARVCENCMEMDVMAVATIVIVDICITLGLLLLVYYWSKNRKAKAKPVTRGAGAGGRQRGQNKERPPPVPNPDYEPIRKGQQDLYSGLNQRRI
T2 sequence (P07766 23-207): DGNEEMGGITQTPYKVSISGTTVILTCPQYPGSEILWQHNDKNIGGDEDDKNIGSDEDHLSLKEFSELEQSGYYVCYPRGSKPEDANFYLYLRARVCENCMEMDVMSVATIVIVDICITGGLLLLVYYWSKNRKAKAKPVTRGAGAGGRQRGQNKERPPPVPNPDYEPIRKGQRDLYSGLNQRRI

B1: ADI-46356 (antibody, V domains shown)
VH: QVQLVQSGAEVKKPGASVKVSCKASGFNIKDYYMHWVRQAPGQRLEWIGWIDLENANTVYDAKFQGRVTITRDTSASTAYMELSSLRSEDTAVYYCARDAYGRYFYDVWGQGTLVTVSS
VL: DIVMTQSPDSLAVSLGERATINCKSSQSLLNARTGKNYLAWYQQKPGQPPKLLIYWASTRESGVPDRFSGSGSGTDFTLTISSLQAEDVAVYYCVQSYFRRTFGGGTKVEIK
As to B1, the “Cell Binding cCD3 (FOB)” value in assay [1] was found to be 59 FOB. In the assay with Human CD3εδ-Fc (human), this molecule showed a Kd of 0.98 nM. The “Cell Binding hCD3 (FOB)” value in assay [2] stood at 39 FOB.

B2: ADI-46361 (antibody, V domains shown)
VH: B1 VH with I29N
VL: B1 VL with V95T
notes: also called Ab45
Regarding B2, the “Cell Binding cCD3 (FOB)” value in assay [1] stood at 84 FOB. This molecule also yielded an equilibrium dissociation constant (Kd) with Human CD3εδ-Fc (human) of 0.93 nM. Further, the “Cell Binding hCD3 (FOB)” value in assay [2] was 23 FOB.

B3: ADI-46370 (antibody, V domains shown)
VH: B1 VH with A62H
VL: B1 VL
notes: also called Ab34
On to B3, for which, in assay [1], the “Cell Binding cCD3 (FOB)” value worked out at 46 FOB. For the same molecule, the Kd with Human CD3εδ-Fc (human) came to 1 nM. For the same molecule, in assay [2], the “Cell Binding hCD3 (FOB)” value was 40 FOB.

B4: ADI-46360 (antibody, V domains shown)
VH: B1 VH with L45P, T91A, V93A
VL: B1 VL with K51E, V95T
notes: also called Ab44
As to B4, in assay [1], the “Cell Binding cCD3 (FOB)” value was 106 FOB. Also, the Kd with Human CD3εδ-Fc (human) was 0.97 nM. Also, the “Cell Binding hCD3 (FOB)” value in assay [2] is 40 FOB.

B5: ADI-46369 (antibody, V domains shown)
VH: B1 VH with V2A, A62T
VL: B1 VL
notes: also called Ab33
As for B5, in assay [1], the “Cell Binding cCD3 (FOB)” value stood at 71 FOB. In the assay with Human CD3εδ-Fc (human), this molecule yielded an equilibrium dissociation constant (Kd) of 0.92 nM. Further, the “Cell Binding hCD3 (FOB)” value in assay [2] is 33 FOB.

B6: ADI-46363 (antibody, V domains shown)
VH: B1 VH
VL: B1 VL with V95T
notes: also called Ab47
Consider B6, for which, in assay [1], the “Cell Binding cCD3 (FOB)” value amounted to 129 FOB. In addition, the Kd with Human CD3εδ-Fc (human) is 0.93 nM. The “Cell Binding hCD3 (FOB)” value in assay [2] was determined as 49 FOB.

B7: ADI-46367 (antibody, V domains shown)
VH: B1 VH with T78I
VL: B1 VL with V95A
notes: also called Ab32
In the case of B7, in assay [1], the “Cell Binding cCD3 (FOB)” value was 62 FOB. Further, the Kd with Human CD3εδ-Fc (human) amounted to 0.95 nM. In assay [2], the “Cell Binding hCD3 (FOB)” value turned out to be 8 FOB.

B8: ADI-46365 (antibody, V domains shown)
VH: B1 VH with S77G, Y80H, L114P
VL: B1 VL with V95T
notes: also called Ab49
For the molecule B8, the “Cell Binding cCD3 (FOB)” value in assay [1] worked out at 84 FOB. In the assay with Human CD3εδ-Fc (human), this molecule gave a Kd of 1 nM. The “Cell Binding hCD3 (FOB)” value in assay [2] is 36 FOB.

B9: ADI-46371 (antibody, V domains shown)
VH: B1 VH with V2A, L45P, V93A
VL: B1 VL
notes: also called Ab35
For B9, the “Cell Binding cCD3 (FOB)” value in assay [1] was 121 FOB. The molecule also registered a Kd in the assay with Human CD3εδ-Fc (human) of 0.86 nM. The “Cell Binding hCD3 (FOB)” value in assay [2] was determined as 47 FOB.

B10: ADI-46364 (antibody, V domains shown)
VH: B1 VH with F64L, R87G
VL: B1 VL
notes: also called Ab48
On to B10, for which, in assay [1], the “Cell Binding cCD3 (FOB)” value is 63 FOB. The molecule also displayed a Kd in the assay with Human CD3εδ-Fc (human) of 0.97 nM. Moreover, in assay [2], the “Cell Binding hCD3 (FOB)” value worked out at 33 FOB.

B11: ADI-46362 (antibody, V domains shown)
VH: B1 VH with L45P, V93A
VL: B1 VL
notes: also called Ab46
For B11, in assay [1], the “Cell Binding cCD3 (FOB)” value was found to be 95 FOB. In the assay with Human CD3εδ-Fc (human), this molecule came in with a Kd of 0.8 nM. Further, the “Cell Binding hCD3 (FOB)” value in assay [2] is 7 FOB.

B12: ADI-46358 (antibody, V domains shown)
VH: B1 VH with S85N
VL: B1 VL with V95T
notes: also called Ab31
With B12, in assay [1], the “Cell Binding cCD3 (FOB)” value came out at 82 FOB. Besides, the Kd with Human CD3εδ-Fc (human) was found to be 0.99 nM. In assay [2], the “Cell Binding hCD3 (FOB)” value was determined as 35 FOB.
